{"source": "patent US11162953B2", "about": "“Protein binding domains stabilizing functional conformational states of GPCRS and uses thereof” (priority 2010, dated 2021)", "key": {"β2AR [1]": {"target": "T1, β2AR (Homo sapiens, UniProt P07550)", "format": "binding", "conditions": "full-length β2AR membranes, Nb80 versus irrelevant nanobody"}, "β2AR [2]": {"target": "T1, β2AR", "conditions": "agonist competition binding, Sf9 membranes", "source_text": "The IC50 values used for calculations of Ki values were obtained from means of pIC50 values determined by nonlinear regression analysis using Prism (GraphPad Software, San Diego, Calif.) and the s.e. interval from pIC50±s.e."}, "β2AR [3]": {"target": "T1, β2AR", "assay": "[3H]-DHA competition binding on β2AR reconstituted in HDL particles, with or without Gs or Nb80", "design": "recombinant β2AR truncated at Gly365 (β2AR-365); made in house; host or cells: Sf9 insect cells", "conditions": "β2AR/HDL"}, "β2AR [4]": {"test_system": "β2AR", "assay": "Size exclusion chromatography of nanobody with purified agonist- or inverse agonist-bound β2AR", "format": "binding, human", "conditions": "20 μM β2AR bound to agonist or inverse agonist, 40 μM nanobody", "experimental": "The mixture was then analyzed by Size Exclusion Chromatography (SEC), which separates protein on the basis of size. Seven of the nanobodies bound to purified β2AR and migrated as a complex on SEC only in the presence of agonist and not an inverse agonist (an example is shown in FIG. 1, Panel a, FIGS. 3A, 3B, and FIG. 4).\nAgonist selective nanobodies were identified by size exclusion chromatography following incubation of 20 μM agonist or inverse agonist-(carazolol-) bound β2AR-365N for one hour at RT in the absence or presence of 40 μM nanobody."}, "β2AR [5]": {"target": "T1, β2AR", "assay": "Monobromobimane fluorescence of purified mBBr-labeled β2AR", "format": "biochemical", "design": "made in house", "conditions": "1 μM nanobody, β2AR bound to full agonist isoproterenol", "from_the_text": "To investigate the effect of nanobodies on movement of the cytoplasmic domain of TM6 we labeled purified β2AR at C265 with monobromobimane (mBB-β2AR). […] In mBB-β2AR, the addition of agonist together with G protein results in larger fluorescent changes than either agonist or G protein alone. This is compatible with the cooperative interactions observed in agonist competition binding assays (Yao et al. 2009).\nPurified β2AR was reacted with 1:1 equivalent of monobromobimane (mBBr, Invitrogen) in 100 mM NaCl, 20 mM HEPES, pH 7.5, 0.1% dodecyl maltoside and incubated overnight on ice in the dark. The fluorophore-labeled receptor was purified right before use by gel filtration on a desalting column equilibrated with the same buffer. […] All experiments were performed at 25° C. […] To determine the effect of nanobodies and ligands, three individual labeled protein samples were incubated with 1 μM nanobody or 10 μM Isoproterenol or both. Emission spectra of the samples were taken after 1 hour incubation."}, "dopamine D1 receptor": {"target": "dopamine D1 receptor (Homo sapiens, UniProt P21728)", "sequence (P21728 whole entry, species assumed)": "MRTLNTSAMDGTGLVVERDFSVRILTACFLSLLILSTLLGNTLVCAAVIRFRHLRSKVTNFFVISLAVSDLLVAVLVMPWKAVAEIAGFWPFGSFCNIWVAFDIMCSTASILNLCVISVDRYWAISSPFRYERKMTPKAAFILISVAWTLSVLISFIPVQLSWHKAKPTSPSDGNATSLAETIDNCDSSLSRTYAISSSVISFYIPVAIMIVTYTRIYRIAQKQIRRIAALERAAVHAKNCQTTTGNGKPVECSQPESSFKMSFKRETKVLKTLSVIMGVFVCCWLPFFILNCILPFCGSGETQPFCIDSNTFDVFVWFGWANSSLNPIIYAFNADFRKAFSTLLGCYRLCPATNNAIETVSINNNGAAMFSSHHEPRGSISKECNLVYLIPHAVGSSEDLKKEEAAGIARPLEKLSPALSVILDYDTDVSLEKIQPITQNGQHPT", "assay": "Effect of Nb80 on unrelated receptor", "format": "binding", "conditions": "data not shown"}, "β2AR [6]": {"test_system": "β2AR", "assay": "[3H]-DHA competition binding on β2AR reconstituted in HDL particles, with or without Gs or Nb80", "design": "species or system human", "conditions": "β2AR/HDL + Nb80 versus alone"}, "human β1AR": {"target": "human β1AR (Homo sapiens, UniProt P08588)", "sequence (P08588 whole entry)": "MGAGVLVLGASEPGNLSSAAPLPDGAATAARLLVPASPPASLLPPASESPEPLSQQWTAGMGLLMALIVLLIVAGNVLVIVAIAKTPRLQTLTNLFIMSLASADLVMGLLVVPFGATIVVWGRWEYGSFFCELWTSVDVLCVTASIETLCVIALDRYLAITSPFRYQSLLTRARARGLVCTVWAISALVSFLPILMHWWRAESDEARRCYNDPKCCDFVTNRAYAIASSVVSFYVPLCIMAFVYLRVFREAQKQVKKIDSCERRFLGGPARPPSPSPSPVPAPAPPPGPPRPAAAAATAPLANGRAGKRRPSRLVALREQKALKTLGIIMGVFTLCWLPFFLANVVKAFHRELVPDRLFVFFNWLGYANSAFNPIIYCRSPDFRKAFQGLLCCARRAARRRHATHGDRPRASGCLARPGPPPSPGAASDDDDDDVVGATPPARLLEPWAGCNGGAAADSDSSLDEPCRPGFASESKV", "assay": "[3H]-DHA competition binding on β1AR with or without Nb80", "from_the_text": "Active state stabilizing Nanobodies that are cross-reactive to related receptors can be used as a tool to stabilize a conformational state of those related receptors. […] Using the PISA server (Krissinel & Henrick, 2007) and based on the crystal structure of the Nb80-β2AR complex, 30 β2AR AA residues were identified to interact with Nb80 in the β2AR-Nb80 interface. […] The remaining interface residues are lysines in β2AR and have been substituted by arginines in β1AR corresponding to conserved substitutions (shown in grey boxes in FIG. 17). It thus appears that both receptors share a very similar binding site for Nb80. Based on this analysis, we also measured the effect of Nb80 on the affinity of β1AR for the agonist isoproterenol and the inverse agonist […] (FIG. 18)."}, "β2AR [7]": {"target": "T1, β2AR", "assay": "Fluorescent (CPM) thermal stability assay of detergent-solubilized agonist-bound β2AR", "design": "made in house", "experimental": "(§1) The effect of conformational selective nanobodies on the thermostability and the subsequent aggregation of the β2AR receptor was analyzed using a fluorescent thermal stability assay (FIG. 13) and size exclusion chromatography (FIGS. 14A and 14B).\nThe fluorescent thermal stability assay makes use of the thiol-specific fluorochrome N-[4-(7-diethylamino-4-methyl-3-coumarinyl)phenyl]maleimide (CPM) to measure the chemical reactivity of the native cysteines embedded in the protein interior as a sensor for the overall integrity of the folder state of membrane proteins (Alexandrov et al. 2008). For the fluorescent thermal stability assay, detergent-solubilized receptor (in 0.1% dodecylmaltoside, 100 mM NaCl and 20 mM Hepes pH 7.5) was pre-incubated with isoproterenol (10 μM) in the presence or absence of a 2:1 molar excess of Nb80 for one hour at RT. Samples were then mixed with CPM fluorophore and incubated for two minutes at temperatures ranging from 10° C. to 94° C. and fluorescence emission was collected. […] Unfolding transitions could be described by a simple two-state model, including the native (folded) and the denaturated state, representing the lower and upper plateaus of the melting curves."}, "β2AR-T4L [8]": {"target": "T2, β2AR-T4L (Homo sapiens, UniProt P07550, DEL231-262, form not given)", "T2 construct": "The β2AR and β2AR-T4L (both truncated at position 365) purified as previously described (Rosenbaum et al. 2007); fused on or other part: T4 lysozyme inserted in place of the third intracellular loop between TM5 and TM6 as a crystallisation handle (published construct: residues 2-161, C54T/C97A); Reconstituted in HDL particles", "assay": "[3H]-DHA competition binding on β2AR-T4L reconstituted in HDL particles, with or without Nb80", "conditions": "β2AR-T4L/HDL"}, "β2AR-T4L [9]": {"test_system": "β2AR-T4L", "assay": "[3H]-DHA competition binding on β2AR-T4L reconstituted in HDL particles, with or without Nb80", "design": "species or system human", "conditions": "β2AR-T4L/HDL + Nb80 versus alone"}, "β2AR [10]": {"target": "T1, β2AR", "assay": "Temperature-induced aggregation of agonist-bound β2AR analyzed by SEC", "design": "made in house", "conditions": "isoproterenol 10 μM, 2:1 molar excess of Nb80, 10 minutes at increasing temperatures", "experimental": "as §1\nWe also analyzed the effect of Nb80 on the thermal unfolding and aggregation of the agonist-bound receptor by size exclusion chromatography (SEC). For this experiment, dodecylmaltoside-solubilized receptor was pre-incubated with isoproterenol (10 μM) in the presence or absence of a 2:1 molar excess of Nb80 for 45 minutes at RT. Samples were next incubated for 10 minutes at increasing temperatures and subsequently analyzed by SEC (FIGS. 14A and 14B)."}}, "note": "“Also recorded” adds a separate entry of the source.", "data": [{"molecule": "NB80: β2AR-specific nanobody, SEQ ID NO:4; lead nanobody stabilizing the active state (protein, listed as Lama glama) VHH: QVQLQESGGGLVQAGGSLRLSCAASGSIFSINTMGWYRQAPGKQRELVAAIHSGGSTNYANSVKGRFTISRDNAANTVYLQMNSLKPEDTAVYYCNVKDYGAVLYEYDYWGQGTQVTVSS", "values": [{"measurement": "effect of Nb80 on β2AR affinity for ligands", "setting": "β2AR [1]", "value": "increases β2AR affinity for agonists but not for antagonists"}, {"measurement": "enhancement of the affinity of β2AR for the agonist isoproterenol in the presence of nanobody", "setting": "β2AR [2]", "value": "two- to thirty-fold"}, {"measurement": "effect of Nb80 on affinity for the inverse agonist ICI-118,551", "setting": "β2AR [3]", "value": "does not increase the affinity; also recorded: little effect"}, {"measurement": "complex formation with β2AR on SEC", "setting": "β2AR [4]", "value": "β2AR-agonist-Nb80 complex formation"}, {"measurement": "nanobody-induced change of mBBr fluorescence", "setting": "β2AR [5]", "value": "larger changes were observed when both agonist and nanobody were added together; also recorded: stabilizes a more active state of the β2AR"}, {"measurement": "effect of Nb80 on unrelated receptor", "setting": "dopamine D1 receptor", "value": "No such effect"}, {"measurement": "increase of isoproterenol affinity in the presence of Nb80", "setting": "β2AR [6]", "value": 95, "unit": "fold"}, {"measurement": "effect of Nb80 on affinity of β1AR for CGP20712A", "setting": "human β1AR", "value": "does not change the affinity"}, {"measurement": "effect of Nb80 on affinity of β1AR for the agonist isoproterenol", "setting": "human β1AR", "value": "increased affinity"}, {"measurement": "apparent melting temperature for β2AR with Nb80", "setting": "β2AR [7]; DDM-solubilized isoproterenol-bound β2AR, 12.0° C. without Nb80", "value": 24, "unit": "°C"}, {"measurement": "increase of melting temperature (Tm) of the agonist-bound receptor", "setting": "β2AR [7]; isoproterenol 10 μM, 2:1 molar excess of Nb80", "value": 12, "unit": "°C"}, {"measurement": "effect of Nb80 on affinity for the inverse agonist ICI-118,551", "setting": "β2AR-T4L [8]", "value": "does not increase the affinity"}, {"measurement": "increase of isoproterenol affinity in the presence of Nb80", "setting": "β2AR-T4L [9]", "value": 60, "unit": "fold"}, {"measurement": "effect on temperature-induced aggregation of agonist-bound receptor (SEC)", "setting": "β2AR [10]", "value": "protects the agonist-bound receptor against temperature-induced aggregation"}]}]}
